Measured values taken from the supplement of paper PMC10567573.

B1: FEM1A (parent)
chain: NIVEYLIQEQPGQEQVAGGEAQPG

Variants of: B1
Experiment: protein stability index of a GFP-peptide fusion (GPS, HEK-293T) (PSI 1-6); higher = more stable
Conditions: c terminus: a fixed tail appended
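Also: lentivirally expressed fusions sorted by FACS into six bins by GFP to DsRed ratio, PSI derived from sequencing read proportions per bin multiplied by bin number.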

Row | Variant | protein stability index
1 | NIFEYLIQEQPGQEQVAGGEAQPG | 4.21
2 | NIGEYLIQEQPGQEQVAGGEAQPG | 5.37
3 | NIHEYLIQEQPGQEQVAGGEAQPG | 5.06
4 | NIIEYLIQEQPGQEQVAGGEAQPG | 3.91
5 | NIKEYLIQEQPGQEQVAGGEAQPG | 5.05
6 | NILEYLIQEQPGQEQVAGGEAQPG | 3.07
7 | NIMEYLIQEQPGQEQVAGGEAQPG | 4.2
8 | NINEYLIQEQPGQEQVAGGEAQPG | 5.01
9 | NIPEYLIQEQPGQEQVAGGEAQPG | 5.74
10 | NIQEYLIQEQPGQEQVAGGEAQPG | 4.57
11 | NIREYLIQEQPGQEQVAGGEAQPG | 5.21
12 | NISEYLIQEQPGQEQVAGGEAQPG | 5.49
13 | NITEYLIQEQPGQEQVAGGEAQPG | 4.81
14 | NIWEYLIQEQPGQEQVAGGEAQPG | 3.67
15 | NIYEYLIQEQPGQEQVAGGEAQPG | 4.33
16 | NIVAYLIQEQPGQEQVAGGEAQPG | 3.48
17 | NIVCYLIQEQPGQEQVAGGEAQPG | 3.11
18 | NIVDYLIQEQPGQEQVAGGEAQPG | 4.79
19 | NIVFYLIQEQPGQEQVAGGEAQPG | 2.4
20 | NIVGYLIQEQPGQEQVAGGEAQPG | 4.16
21 | NIVHYLIQEQPGQEQVAGGEAQPG | 3.56
22 | NIVIYLIQEQPGQEQVAGGEAQPG | 1.86
23 | NIVKYLIQEQPGQEQVAGGEAQPG | 4.11
24 | NIVLYLIQEQPGQEQVAGGEAQPG | 1.92

Row | Variant | protein stability index
25 | NIVMYLIQEQPGQEQVAGGEAQPG | 2
26 | NIVNYLIQEQPGQEQVAGGEAQPG | 4.22
27 | NIVPYLIQEQPGQEQVAGGEAQPG | 4.76
28 | NIVQYLIQEQPGQEQVAGGEAQPG | 3.95
29 | NIVRYLIQEQPGQEQVAGGEAQPG | 3.48
30 | NIVSYLIQEQPGQEQVAGGEAQPG | 3.64
31 | NIVTYLIQEQPGQEQVAGGEAQPG | 4.6
32 | NIVVYLIQEQPGQEQVAGGEAQPG | 1.82
33 | NIVWYLIQEQPGQEQVAGGEAQPG | 2.52
34 | NIVYYLIQEQPGQEQVAGGEAQPG | 2.31
35 | NIVEALIQEQPGQEQVAGGEAQPG | 5.18
36 | NIVECLIQEQPGQEQVAGGEAQPG | 4.74
37 | NIVEDLIQEQPGQEQVAGGEAQPG | 5.67
38 | NIVEELIQEQPGQEQVAGGEAQPG | 5.66
39 | NIVEFLIQEQPGQEQVAGGEAQPG | 3.56
40 | NIVEGLIQEQPGQEQVAGGEAQPG | 5.7
41 | NIVEHLIQEQPGQEQVAGGEAQPG | 4.93
42 | NIVEILIQEQPGQEQVAGGEAQPG | 3.98
43 | NIVEKLIQEQPGQEQVAGGEAQPG | 5.31
44 | NIVELLIQEQPGQEQVAGGEAQPG | 4.03
45 | NIVEMLIQEQPGQEQVAGGEAQPG | 3.95
46 | NIVENLIQEQPGQEQVAGGEAQPG | 4.83
47 | NIVEPLIQEQPGQEQVAGGEAQPG | 5.82
48 | NIVEQLIQEQPGQEQVAGGEAQPG | 5.08

Row | Variant | protein stability index
49 | NIVERLIQEQPGQEQVAGGEAQPG | 4.54
50 | NIVESLIQEQPGQEQVAGGEAQPG | 4.83
51 | NIVETLIQEQPGQEQVAGGEAQPG | 5.44
52 | NIVEVLIQEQPGQEQVAGGEAQPG | 4.49
53 | NIVEWLIQEQPGQEQVAGGEAQPG | 2.18
54 | NIVEYAIQEQPGQEQVAGGEAQPG | 5.36
55 | NIVEYCIQEQPGQEQVAGGEAQPG | 5.11
56 | NIVEYDIQEQPGQEQVAGGEAQPG | 5.26
57 | NIVEYEIQEQPGQEQVAGGEAQPG | 5.82
58 | NIVEYFIQEQPGQEQVAGGEAQPG | 4.71
59 | NIVEYGIQEQPGQEQVAGGEAQPG | 5.51
60 | NIVEYHIQEQPGQEQVAGGEAQPG | 5.61
61 | NIVEYIIQEQPGQEQVAGGEAQPG | 4.63
62 | NIVEYKIQEQPGQEQVAGGEAQPG | 5.42
63 | NIVEYMIQEQPGQEQVAGGEAQPG | 4.5
64 | NIVEYNIQEQPGQEQVAGGEAQPG | 5.71
65 | NIVEYPIQEQPGQEQVAGGEAQPG | 5.7
66 | NIVEYQIQEQPGQEQVAGGEAQPG | 5.35
67 | NIVEYRIQEQPGQEQVAGGEAQPG | 5.16
68 | NIVEYSIQEQPGQEQVAGGEAQPG | 5.45
69 | NIVEYTIQEQPGQEQVAGGEAQPG | 5.59
70 | NIVEYVIQEQPGQEQVAGGEAQPG | 5.11
71 | NIVEYWIQEQPGQEQVAGGEAQPG | 4.44
72 | NIVEYYIQEQPGQEQVAGGEAQPG | 5.11

Row | Variant | protein stability index
73 | NIVEYLAQEQPGQEQVAGGEAQPG | 5.14
74 | NIVEYLCQEQPGQEQVAGGEAQPG | 4.78
75 | NIVEYLDQEQPGQEQVAGGEAQPG | 5.39
76 | NIVEYLEQEQPGQEQVAGGEAQPG | 5.3
77 | NIVEYLFQEQPGQEQVAGGEAQPG | 4.14
78 | NIVEYLGQEQPGQEQVAGGEAQPG | 4.55
79 | NIVEYLHQEQPGQEQVAGGEAQPG | 4.74
80 | NIVEYLKQEQPGQEQVAGGEAQPG | 5.17
81 | NIVEYLLQEQPGQEQVAGGEAQPG | 3.69
82 | NIVEYLMQEQPGQEQVAGGEAQPG | 4.25
83 | NIVEYLNQEQPGQEQVAGGEAQPG | 5.3
84 | NIVEYLPQEQPGQEQVAGGEAQPG | 5.71
85 | NIVEYLQQEQPGQEQVAGGEAQPG | 5.3
86 | NIVEYLRQEQPGQEQVAGGEAQPG | 4.92
87 | NIVEYLSQEQPGQEQVAGGEAQPG | 4.75
88 | NIVEYLTQEQPGQEQVAGGEAQPG | 4.65
89 | NIVEYLVQEQPGQEQVAGGEAQPG | 4.43
90 | NIVEYLWQEQPGQEQVAGGEAQPG | 3.95
91 | NIVEYLYQEQPGQEQVAGGEAQPG | 4.33
92 | NIVEYLIAEQPGQEQVAGGEAQPG | 4.46
93 | NIVEYLICEQPGQEQVAGGEAQPG | 3.36
94 | NIVEYLIDEQPGQEQVAGGEAQPG | 4.89
